Data published in patent US20190177416A1 (NANOMAB TECHNOLOGY, published 2019).
Residue numbers refer to the chain shown, from its start. One block for each binder: values may come before it.

Molecular target: T1, human PD-L1 protein (coated antigen) (human, UniProt Q9NZQ7 19-238, limits assumed)
T1 construct: Construct not described; also called PD-L1 antigen; antigenic protein PD-L1
Test: PE-ELISA, crude extract on coated PD-L1
Protocol: (1) From the cell culture dishes containing phage after 3-4 rounds of screening in Example 2, 1000 individual colonies were selected and inoculated into TB medium containing 100 μg/ml of ampicillin (1 liter of TB medium contains 2.3 g of potassium dihydrogen phosphate, 12.52 g of dipotassium hydrogen phosphate, 12 g of peptone, 24 g of yeast extract, 4 ml of glycerol), after growth to log phase, add a final concentration of […] of IPTG, culture at 28° C. overnight. (2) The crude antibody was obtained by the infiltration method, and the antibody was transferred to an antigen-coated ELISA plate and placed at room temperature for 1 hour. (3) Unbound antibody was washed away with PBST, and a mouse anti-HA tag antibody (anti-mouse anti-HA antibody, purchased from Beijing Kangwei Century Biotechnology Co., Ltd.) was added and placed at room temperature for 1 hour. (4) Unbound antibody was washed away with PBST, and anti-mouse alkaline phosphatase conjugate (goat anti-mouse alkaline phosphatase-labeled antibody, purchased from Amytech Co., Ltd.) was added and placed at room temperature for 1 hour. (5) Wash the unbound antibody with PBST, add alkaline phosphatase coloring solution, and read the absorbance at 405 nm on an ELISA apparatus. (6) When the OD value of the sample well is more than 3 times the OD value of the control well (Ratio+/−>3), it is judged as a positive clone hole. (7) The bacteria of the positive clone well were shaken in a LB liquid containing 100 μg per ml to extract a plasmid and perform sequencing.

T1 sequence (Q9NZQ7 19-238 limits assumed): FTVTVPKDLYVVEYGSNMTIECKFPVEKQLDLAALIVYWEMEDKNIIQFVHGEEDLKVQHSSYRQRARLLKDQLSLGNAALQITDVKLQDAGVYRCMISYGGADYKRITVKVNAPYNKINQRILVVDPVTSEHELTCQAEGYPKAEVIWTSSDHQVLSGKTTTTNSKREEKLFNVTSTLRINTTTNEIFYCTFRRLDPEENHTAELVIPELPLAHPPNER

B1: SEQ ID NO 18 (VHH)
VHH: QVQLQESGGGSVQAGGSLRLSCAASGYTYSSDGMGWFRQTPGKEREGVAAISPTGRRTEYADSVKGRFTISRDNNKNMLSLQMNSLKPEDTGMYYCAREGSWSFSLANSAVRSWGQGTQVTVSS
notes: pMECS-expressed; also called VHH numbered 18
OD ratio (experimental group (A405 nm)/control group (A405 nm)): > 20

B2: SEQ ID NO 75 (VHH)
VHH: QVQLQESGGGSVQTGGSLRLSCAASTSIYSNNYMAWFRQAPGKGREGVAAVYIGDGRPYYADSAKGRFTISLDSAKNTVYLHMNSLKPEDTAMYYCAAAPGPLSRHYWYTSANYDYWGPGTQVTVSS
notes: pMECS-expressed; also called VHH numbered 75
OD ratio (experimental group (A405 nm)/control group (A405 nm)): > 20

B13: SEQ ID NO 20 (VHH)
VHH: QVQLQESGGGLVQPGGSLRLSCAASGFTGSIYAMSWVRQAPGKGLEWVSTISSSGGRRFYADSVKGRFTISRDNAKNTLYLQLNSLKTEDTAMYYCARCSDIYCDNGASYRGQGTQVTVSS
notes: pMECS-expressed; also called VHH numbered 20
OD ratio (experimental group (A405 nm)/control group (A405 nm)): > 20

B14: SEQ ID NO 70 (VHH)
VHH: B13 VHH with G29F, Y32R, S52N, S54G, G56D, R57S, F59Y, L79M, A97V, D105Y
notes: pMECS-expressed; also called VHH numbered 70
OD ratio (experimental group (A405 nm)/control group (A405 nm)): > 20

B15: SEQ ID NO 58 (VHH)
VHH: B13 VHH with A24L, G29S, S30T, S52N, S54D, R57Y, F59Y, L86P, D105Y, A108P
notes: pMECS-expressed; also called VHH numbered 58
OD ratio (experimental group (A405 nm)/control group (A405 nm)): > 20

B16: SEQ ID NO 61 (VHH)
VHH: QVQLQESGGGLVQPGGSLRLSCAASGFDFSSRAMSWVRQAPGKGLEWVSTINSGGGSRYYADSVKGRFTTSRDNAKNTLALQLNSLKTEDTAMYYCARCSDIYCDNGAWYRGQGTQVTVSS
notes: pMECS-expressed; also called VHH numbered 61
OD ratio (experimental group (A405 nm)/control group (A405 nm)): > 20

B17: SEQ ID NO 45 (VHH)
VHH: B13 VHH with G29F, Y32K, S52D, S54G, F59Y, N84S, Y95F, D105Y
notes: pMECS-expressed; also called VHH numbered 45
OD ratio (experimental group (A405 nm)/control group (A405 nm)): > 20

Further lines, results first:

OD ratio (experimental group (A405 nm)/control group (A405 nm)): > 20
B3: SEQ ID NO 80 (VHH)
VHH: B2 VHH with A23V, R38S, G54D, A64V, H82Q, H106S, P119Q
notes: pMECS-expressed; also called VHH numbered 80

OD ratio (experimental group (A405 nm)/control group (A405 nm)): > 20
B4: SEQ ID NO 83 (VHH)
VHH: QVQLQESGGGLVQTGGSLRLSCAASTSIYSNNYLAWFSQAPGKGREGVAAVYIGDGRPYYADSVKGRFPISLNSAQNKVYLQMNSLKPEDTAMYYCAAAPGPLSRNYWYTSANYDYWGQGTQVTVSS
notes: pMECS-expressed; also called VHH numbered 83

OD ratio (experimental group (A405 nm)/control group (A405 nm)): > 20
B5: SEQ ID NO 84 (VHH)
VHH: B2 VHH with Y29D, G54D, A64V, H82Q
notes: pMECS-expressed; also called VHH numbered 84

OD ratio (experimental group (A405 nm)/control group (A405 nm)): > 20
B6: SEQ ID NO 82 (VHH)
VHH: B2 VHH with A23T, R38S, G54D, A64V, H82Q, H106N, P119Q
notes: pMECS-expressed; also called VHH numbered 82

OD ratio (experimental group (A405 nm)/control group (A405 nm)): > 20
B7: SEQ ID NO 76 (VHH)
VHH: B2 VHH with A40V, G54D, P58T, A64V, H82Q
notes: pMECS-expressed; also called VHH numbered 76

OD ratio (experimental group (A405 nm)/control group (A405 nm)): > 20
B8: SEQ ID NO 77 (VHH)
VHH: B2 VHH with A23T, R38S, G54D, A64V, H82Q, H106N, P119Q
notes: pMECS-expressed; also called VHH numbered 77

OD ratio (experimental group (A405 nm)/control group (A405 nm)): > 20
B9: SEQ ID NO 85 (VHH)
VHH: B2 VHH with R38S, G54A, G56D, A64V, H82Q, H106N, P119Q
notes: pMECS-expressed; also called VHH numbered 85

OD ratio (experimental group (A405 nm)/control group (A405 nm)): > 20
B10: SEQ ID NO 78 (VHH)
VHH: B2 VHH with I28L, N31Y, R38S, I53V, A64V, H82Q, R105H, H106N, P119Q
notes: pMECS-expressed; also called VHH numbered 78

OD ratio (experimental group (A405 nm)/control group (A405 nm)): > 20
B11: SEQ ID NO 86 (VHH)
VHH: B2 VHH with E6D, N31I, R38S, I53T, A64V, H82Q, H106N, P119Q
notes: pMECS-expressed; also called VHH numbered 86

OD ratio (experimental group (A405 nm)/control group (A405 nm)): > 20
B12: SEQ ID NO 81 (VHH)
VHH: B2 VHH with R38S, G54D, P58T, A64V, H82Q, H106N, P119Q
notes: pMECS-expressed; also called VHH numbered 81
